Data reported in publication PMC6797804 (2019).
Positions count from the first letter of the chain named. Each block holds one binder with its values, some of them ahead of it. Ends that are not written are not given here. * marks the point of attachment. Crotonyl(E) = C/C=C/C(=O)*

Experiments:
[1] = biological target: T1, MORF DPF domain (residues 211–322) F287A/R306E/K309E (human, UniProt Q8WYB5 211-322, F287A | R306E | K309E); experiment: NMR
T1 sequence: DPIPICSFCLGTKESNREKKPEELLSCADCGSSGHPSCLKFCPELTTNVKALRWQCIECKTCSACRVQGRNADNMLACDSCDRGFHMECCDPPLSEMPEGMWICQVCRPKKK

[2] = biological target: MORF DPF domain (residues 211–322) F287A (human, UniProt Q8WYB5 211-322, F287A); experiment: NMR
MORF DPF domain (residues 211–322) F287A, sequence (Q8WYB5 211-322 F287A): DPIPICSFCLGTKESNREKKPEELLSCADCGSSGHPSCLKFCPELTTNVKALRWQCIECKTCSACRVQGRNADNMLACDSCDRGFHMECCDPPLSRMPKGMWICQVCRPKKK

[3] = biological target: T2, MORF DPF domain (residues 211–322) F218A (human, UniProt Q8WYB5 211-322, F218A)
T2 sequence: T1 sequence with F8A, A77F, E96R, E99K

[4] = biological target: T3, MORF DPF domain (residues 211–322), wild type (human, UniProt Q8WYB5 211-322)
T3 chain: T1 sequence with A77F, E96R, E99K

Kd [1]: 285 µM
B1: histone H3K14cr peptide (residues 1–19 of H3) (peptide)
peptide: ARTKQTARKSTGGK(Crotonyl(E))APRKQ

Kd [2]: 8000 µM | Kd [3]: 3.3 µM | Kd [4]: 3.6 µM
B2: unmodified histone H3 peptide (residues 1–19 of H3) (peptide)
peptide: ARTKQTARKSTGGKAPRKQ
